Data as given in the supplement of paper PMC5998384.

Assays:
[1] = tested on: HeLa Kyoto; assay: thermal stability score vs G1/S (z-score of summed log2 fold changes over temperatures); higher = more thermally stable than in G1/S
[2] = tested on: HeLa Kyoto; assay: solubility change mitosis vs G1/S (difference of NP-40 vs SDS log2 ratios) (log2 ratio difference); higher = more soluble in mitosis
[3] = tested on: HeLa Kyoto; assay: melting temperature (median over replicates), in situ; higher = more thermally stable
[4] = tested on: HeLa Kyoto; assay: solubility in G1/S (NP-40 vs SDS abundance) (log2 ratio); higher = more soluble; conditions: cell cycle stage: G1/S
[5] = cell cycle stage: early G1 (4.5 h after nocodazole release)
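For melting temperature (median over replicates), in situ in this document: HeLa Kyoto cells synchronized by double thymidine or nocodazole block, proteins quantified by TMT10plex mass spectrometry, three independent biological replicates.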
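For solubility change mitosis vs G1/S (difference of NP-40 vs SDS log2 ratios) in this document: synchronized HeLa Kyoto cells (double thymidine block for G1/S, nocodazole release for mitosis), protein amounts in NP-40 versus SDS lysates quantified by mass spectrometry, three biological replicates.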
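For solubility in G1/S (NP-40 vs SDS abundance) in this document: HeLa Kyoto cells arrested at G1/S by double thymidine block, proteins quantified by TMT10plex mass spectrometry in mild NP-40 versus SDS extracts, three biological replicates.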
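For thermal stability score vs G1/S (z-score of summed log2 fold changes over temperatures) in this document: synchronized HeLa Kyoto cells, proteins quantified by TMT10plex mass spectrometry, three biological replicates, mitosis taken 0.5 h after nocodazole release, G1/S directly after double thymidine block.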

Sequence	thermal stability score [1, 5]	thermal stability score ([1]; cell cycle stage: mitosis)	solubility change mitosis (log2) [2]	melting temperature ([3]; cell cycle stage: G1/S) [°C]	melting temperature ([3]; cell cycle stage: mitosis) [°C]	solubility in G1/S (log2) [4]
MAAAAPVAADDDERRRRPGAALEDSRSQEGANGEAESGELSRLRAELAGALAEMETMKAVAEVSESTKAEAVAAVQRQCQEEVASLQAILKDSISSYEAQITALKQERQQQQQDCEEKERELGRLKQLLSRAYPLDSLEKQMEKAHEDSEKLREIVLPMEKEIEELKAKLLRAEELIQEIQRRPRHAPSLHGSTELLPLSRDPSPPLEPLEELSGDGGPAAEAFAHNCDDSASISSFSLGGGVGSSSSLPQSRQGLSPEQEETASLVSTGTLVPEGIYLPPPGYQLVPDTQWEQLQTEGRQLQKDLESVSRERDELQEGLRRSNEDCAKQMQVLLAQVQNSEQLLRTLQGTVSQAQERVQLQMAELVTTHKCLHHEVKRLNEENQGLRAEQLPSSAPQGSQQEQGEEESLPSSVPELQQLLCCTRQEARARLQAQEHGAERLRIEIVTLREALEEETVARASLEGQLRVQREETEVLEASLCSLRTEMERVQQEQSKAQLPDLLSEQRAKVLRLQAELETSEQVQRDFVRLSQALQVRLERIRQAETLEQVRSIMDEAPLTDVRDIKDT [RABEP2]	-0.553	0.297	0.304	49	50.6	0.504
MAAADAEAVPARGEPQQDCCVKTELLGEETPMAADEGSAEKQAGEAHMAADGETNGSCENSDASSHANAAKHTQDSARVNPQDGTNTLTRIAENGVSERDSEAAKQNHVTADDFVQTSVIGSNGYILNKPALQAQPLRTTSTLASSLPGHAAKTLPGGAGKGRTPSAFPQTPAAPPATLGEGSADTEDRKLPAPGADVKVHRARKTMPKSVVGLHAASKDPREVREARDHKEPKEEINKNISDFGRQQLLPPFPSLHQSLPQNQCYMATTKSQTACLPFVLAAAVSRKKKRRMGTYSLVPKKKTKVLKQRTVIEMFKSITHSTVGSKGEKDLGASSLHVNGESLEMDSDEDDSEELEEDDGHGAEQAAAFPTEDSRTSKESMSEADRAQKMDGESEEEQESVDTGEEEEGGDESDLSSESSIKKKFLKRKGKTDSPWIKPARKRRRRSRKKPSGALGSESYKSSAGSAEQTAPGDSTGYMEVSLDSLDLRVKGILSSQAEGLANGPDVLETDGLQEVPLCSCRMETPKSREITTLANNQCMATESVDHELGRCTNSVVKYELMRPSNKAPLLVLCEDHRGRMVKHQCCPGCGYFCTAGNFMECQPESSISHRFHKDCASRVNNASYCPHCGEESSKAKEVTIAKADTTSTVTPVPGQEKGSALEGRADTTTGSAAGPPLSEDDKLQGAASHVPEGFDPTGPAGLGRPTPGLSQGPGKETLESALIALDSEKPKKLRFHPKQLYFSARQGELQKVLLMLVDGIDPNFKMEHQNKRSPLHAAAEAGHVDICHMLVQAGANIDTCSEDQRTPLMEAAENNHLEAVKYLIKAGALVDPKDAEGSTCLHLAAKKGHYEVVQYLLSNGQMDVNCQDDGGWTPMIWATEYKHVDLVKLLLSKGSDINIRDNEENICLHWAAFSGCVDIAEILLAAKCDLHAVNIHGDSPLHIAARENRYDCVVLFLSRDSDVTLKNKEGETPLQCASLNSQVWSALQMSKALQDSAPDRPSPVERIVSRDIARGYERIPIPCVNAVDSEPCPSNYKYVSQNCVTSPMNIDRNITHLQYCVCIDDCSSSNCMCGQLSMRCWYDKDGRLLPEFNMAEPPLIFECNHACSCWRNCRNRVVQNGLRARLQLYRTRDMGWGVRSLQDIPPGTFVCEYVGELISDSEADVREEDSYLFDLDNKDGEVYCIDARFYGNVSRFINHHCEPNLVPVRVFMAHQDLRFPRIAFFSTRLIEAGEQLGFDYGERFWDIKGKLFSCRCGSPKCRHSSAALAQRQASAAQEAQEDGLPDTSSAAAADPL [EHMT1]	1.22	2.18	0.332	50.2		-0.58
MAAAGAAVARSPGIGAGPALRARRSPPPRAARLPRLLVLLAAAAVGPGAGGAARLYRAGEDAVWVLDSGSVRGATANSSAAWLVQFYSSWCGHCIGYAPTWRALAGDVRDWASAIRVAALDCMEEKNQAVCHDYDIHFYPTFRYFKAFTKEFTTGENFKGPDRELRTVRQTMIDFLQNHTEGSRPPACPRLDPIQPSDVLSLLDNRGSHYVAIVFESNSSYLGREVILDLIPYESIVVTRALDGDKAFLEKLGVSSVPSCYLIYPNGSHGLINVVKPLRAFFSSYLKSLPDVRKKSLPLPEKPHKEENSEIVVWREFDKSKLYTVDLESGLHYLLRVELAAHKSLAGAELKTLKDFVTVLAKLFPGRPPVKKLLEMLQEWLASLPLDRIPYNAVLDLVNNKMRISGIFLTNHIKWVGCQGSRSELRGYPCSLWKLFHTLTVEASTHPDALVGTGFEDDPQAVLQTMRRYVHTFFGCKECGEHFEEMAKESMDSVKTPDQAILWLWKKHNMVNGRLAGHLSEDPRFPKLQWPTPDLCPACHEEIKGLASWDEGHVLTFLKQHYGRDNLLDTYSADQGDSSEGGTLARGEEEEKRLTPPEVSHGDRDTQSVRPPGALGPRPALPESLHHSLDGKLQSLDGPGAHKEVGGAAPFLGVDFSSLDMSLCVVLYVASSLFLMVMYFFFRVRSRRWKVKHHHPAV [QSOX2]	-2.12	-0.982	0.252	54.7	54.9	0.207
